Test results taken from the nanobody polyreactivity screen of Harvey et al. (2022).

Assay: yeast display, Sf9 membrane polyspecificity reagent, FACS + sequencing; frameworks hold sequencing errors
Summary of the method: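 In a synthetic yeast display library (Saccharomyces cerevisiae BJ5465), nanobody expression was induced with galactose for 36–48 hours. FACS gates were set low and high (top ~1%) using anti-HA fluorescence for expression and streptavidin fluorescence for binding of the Sf9 membrane reagent. Each polyreactivity label is drawn from the gate of origin.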

Sequence | polyreactivity (PSR sort gate)
QVQLVESGGGLVQAGGSLRLSCAASGFIIDRNAMGWSRPAPGKERELVAAITWSTTSTYYADSVKGRFTISRDNAKNTVYLQMNSLKPEDTAVYYCAADITSPAYATYDYWGQGTQVTVSS | low polyreactivity
QVQLVESGGGLVQAGGSLRLSCAASGFIIDRYAMGWYRQAPGKERELVARISWSGGSTYYADSVKGRFTISRDNAKNTVYLQMNSLKPEDTAVYYCNKAAWWLQSRYDYWGQGTQVTVSS | high polyreactivity
QVQLVESGGGLVQAGGSLRLSCAASGFIIEAYTMGWYRQAPGKERELVAAITWTGGSTYYADSVKGRFTISRDNAKNTVYLQMNSLKPEDTAVYYCNVPYYSFRELSSYYWGQGTQVTVSS | high polyreactivity
QVQLVESGGGLVQAGGSLRLSCAASGFIIFQYAMGLYRQAPGKERELVAAISGSGVTTYYADSVKGRFTISRDNAKNNVYLQMNSLKPEDTAVYYCNAALSWKYDWGQGTQVTVSS | low polyreactivity
QVQLVESGGGLVQAGGSLRLSCAASGFIINGNDMGWYRQAPGKERELVAAISSSGGSTYYADSVKGRFTISRDNAKNTVYLQMNSRTPEDSAVYYCARRGKQVSGRYYYWGQGTQVSVSS | high polyreactivity
QVQLVESGGGLVQAGGSLRLSCAASGFIIPDYAMGWYRQAPVKERELVAAITSSGGRTYYADSVKVRFTISRDNAKNTVYLQMNSLIPEDTAVYYCAARTNSPRGYGSDYWGQGTQVTVSS | high polyreactivity
QVQLVESGGGLVQAGGSLRLSCAASGFIISGYAMGWYRQAPGKERELVAAISWSGGRTYYADSVKGRFTISRDNAKNTVYLQMKSLKPEDTAVYYFAADGYYRDWYGYGYWGLGTQVTVSS | high polyreactivity
QVQLVESGGGLVQAGGSLRLSCAASGFIISRNAMGWYRQAPGKERELVAAIRTRTGSTYYADSVKGRFTISRDNAKNTVYLQMNSLKPEDTAVYYCNAYPYVNGRYGSWGQGTQVTVSS | high polyreactivity
QVQLVESGGGLVQAGGSLRLSCAASGFIISYYAMGWYRQAPGKDRELVAAISWRGGSTYYADSVKGRFTISRDNAKNTVYLQMNSLKPEDTAVYYCAADFLYGAEGNDYWGQGTQVTVSS | high polyreactivity
QVQLVESGGGLVQAGGSLRLSCAASGFIISYYAMGWYRQAPGKERELVATINFSGAGTSYADSVKGRFTISRDNAKNTVYLQMNSLKPEDTAVYYCAARTNSPRGYGSDYWGQGTQVTVSS | high polyreactivity
QVQLVESGGGLVQAGGSLRLSCAASGFIITSYAMGWYRQAPGKERELVATISSSGGTTYYADSVKGRFTISRDTAKNTVYLQMNSLKPEDTAVYYCAKDAFGWGRVYYYRSGYWGQGTQVTVSS | high polyreactivity
QVQLVESGGGLVQAGGSLRLSCAASGFIIYLYAMGWSRQAPGKERELLAAISRGGGTTYYADSVKGRFTISRDYAQNTVYLQMNSLKPEDTAVYYCAAETEYYSYRFDYWGQGTQVSVSS | high polyreactivity
QVQLVESGGGLVQAGGSLRLSCAASGFIIYSYAMGWYRQAPGKERELVAGITSDGRTYYADSVKGRFTISRDNAKNTVYLQMNSLKPEDTAVYYCAARYYLFYRVSPYYYWGQGTQVTVSS | low polyreactivity
QVQLVESGGGLVQAGGSLRLSCAASGFILGRYAMGWYRQAPGKERELVAAISIGGRTNYADSVKGRFTISRDNAKITVYFQMNSLKPEDTAVYYCATSFAVLLSQVDYWGQGTQVTVSS | low polyreactivity
QVQLVESGGGLVQAGGSLRLSCAASGFILKDNAMGWYRQAPGKERELVAAISSGGGTYYADSVKGRFTISRDNAKNTVSLKMNSLKPEDTAVYYCNADDLYSLNDSSEDYWGQGTQVTVSS | high polyreactivity
QVQLVESGGGLVQAGGSLRLSCAASGFILKPNAMGWYRQAPGKERELVAAISWSSGSTYYADSVKGRFTISRDNAKNTVYLQMNSLKPEDTAVYYCAKDLTQIYYGDDYWGQGTQVTVSS | low polyreactivity
QVQLVESGGGLVQAGGSLRLSCAASGFILPYYAMGWYRQAPGKERELVAAISDTGRTNYADSVKGRFTISRDNAKYTVYLQMNSLKPEDTAVYYCAARYYSPRYWFRYDSWGQCTQVTVSS | high polyreactivity
QVQLVESGGGLVQAGGSLRLSCAASGFILRGYAMGWYIQAPGKERELVDVITGRGDRTYYADSVKGRFTISRDNAKNTVYLQMNSLKPEETAVYYCAARAQPGGSSAIKMYYWGQGTQVTVSS | high polyreactivity
QVQLVESGGGLVQAGGSLRLSCAASGFILRKYAMGWYRQAPGKERELVAAINGRGGTYYADSVKGRFTISRDNAKNTVYLQMNSLKPEDTAVYYCAAVEWYGYYTYTIDAYDYWGQGTQVTVSS | high polyreactivity
QVQLVESGGGLVQAGGSLRLSCAASGFILRNNAMGWSRQAPGKEREFVAAISSGTRTNYADSVKGRFTISSDNAKNTVYLQMNSLKPEDTAVYYCDAYPTRYYVGYDYWGQGTQVTVSS | high polyreactivity
QVQLVESGGGLVQAGGSLRLSCAASGFILRYYAMGWYRQPPGKERELVAAISWSGGSTYYADSVMGRFTISRDNAKNTVYLQMNSLKPEDTAVYYCAADRYAILFYAEDYWGQGTQVTVSS | low polyreactivity

Sequence | polyreactivity (PSR sort gate)
QVQLVESGGGLVQAGGSLRLSCAASGFILSFYTMGWYRQEPGKERELVAVISSRGGRTYYADSVKGRFTISRDNAKNTVYLQMNSLKPEDTAVYYCNKRYYFPKPFDYWGQGTQVTVSS | high polyreactivity
QVQLVESGGGLVQAGGSLRLSCAASGFILSPNTMGWYRLAPGKERELVAAISSDVSTYADSVKGRFTISRDNAKNTVYLQMYSLKPEDTAVYYCNADDFGYASYESWGQGTQVTVSS | low polyreactivity
QVQLVESGGGLVQAGGSLRLSCAASGFILTSYAMGWNRQAPGKERELVAAISSRGGRTYYADSVKGRFTISRDNAKNTVYLQMNSLKPEDTAVYYCNAVVYVVGDFDYWGQGTQVTVSS | high polyreactivity
QVQLVESGGGLVQAGGSLRLSCAASGFILYFNAMGWYSQAPGKERELVAAITSDGGSTYYADSVKGRFTISRDNAKNTVYLQMNSLKPEDTAVYYCAADASTWYTEEYWGQGTQVTVSS | low polyreactivity
QVQLVESGGGLVQAGGSLRLSCAASGFILYYYVMGWYRQAPGKERELVAAISTSGTSTYYADSVKGRFTISRDNAKNTVYLQMNSLKPEDTAVYYCAAEKDSSDIMEYWGQGTQVTVSS | high polyreactivity
QVQLVESGGGLVQAGGSLRLSCAASGFISAYYAMGWYRQAPGKEMELVAAISWNGGRTFYADSVKGRFTISRDNAKNTVYLQMNSLKPEDTAVYYCAADGRLRGYGYWGQGTQVTVSS | high polyreactivity
QVQLVESGGGLVQAGGSLRLSCAASGFISAYYAMGWYRQAPGKERELVAAISWNGGRTFYADSVKGRFTISRDNAKNTVYLQMNSLKPEDTAVYYCAADGRLRGYGYWGQGTQVTVSS | high polyreactivity
QVQLVESGGGLVQAGGSLRLSCAASGFISFAYAMAWYRQAPGKERELVAGISRSGDSTYYADSVKGRFTISRDNAKNTVYLQMNSLKPEDTAVYYCAARQVVWFDYTTAQVGSYKVNYWGQGTQVTVSS | low polyreactivity
QVQLVESGGGLVQAGGSLRLSCAASGFISFDNAMGWYRQAPGKERELVAAIRSGGSTNYADSVKGRFTISRDNAKNSVYLQMNSLKPEDTAVYYCAALDQYGYYQKYYYWGQGTQVTVSS | low polyreactivity
QVQLVESGGGLVQAGGSLRLSCAASGFISLRNTMGWYRQAPGKERELVAAINWSGGSTYYADSVKGRFTISRDNAKNTVYLQMNSLKPEDTAVYYCAKGPWPPIYRLFPGYAKFGYWGQGTQVTVSS | low polyreactivity
QVQLVESGGGLVQAGGSLRLSCAASGFISPPYAMGWYRQAPGKERELVAAIRSSGGSTYYADSVKGRFTISRDNAKNTVYLQMNSLIPEDTAVYYCNADWIYISSYGWYSYDYWGQGTQVTVSS | high polyreactivity
QVQLVESGGGLVQAGGSLRLSCAASGFISPSNAMGWYRQAPGKERELVAAIRSSDGSTYYADSVKGRFTISRDNAKNTVYLQMNSLKPEDTAVYYCAAGGSYYRDDYWGQGTQVTVSS | low polyreactivity
QVQLVESGGGLVQAGGSLRLSCAASGFISTINVMGWYRQAPGKERELVAAITYIDGSTFYADSVKGRFTISRDNAKNTVYLQMNSLKPEDTAVYYCAADLYQWGAVFLYVRSTGLDYWGQGTQVTVSS | low polyreactivity
QVQLVESGGGLVQAGGSLRLSCAASGFISYPYAMGWSRPAPGKERELVAAISSSGGSTYYADSVKGRFTISRDNAKNTVYLQMNSLIPEDTAVYYCAARGFYRSYYWGQGTHVTVSS | high polyreactivity
QVQLVESGGGLVQAGGSLRLSCAASGFITWGNAMGWYRQAPGKERELVAAISWRDARTYYADSVKGRFTISRDNAKNTVYLQMNSLKPEDTAVYYCNAVTAYVSRNLRGYRWFDYWGQGTQVTVSS | low polyreactivity
QVQLVESGGGLVQAGGSLRLSCAASGFIVGHYAMGWYRQAPGQEREFVAAITSGGTTYYADSVKGRFTISRDNAKNTVYLQMNSLKPEDTAVYYCNADDAFRYYWLGLYDYWGQGTQVTVSS | low polyreactivity
QVQLVESGGGLVQAGGSLRLSCAASGFIVTANGMGWDRQAPGQERELVASISRRGGSTYYADSVKGRFTISRDNAKNTVYLQMNSLKPEDTAVYYCAARFYQEWGQGTQVTVSS | high polyreactivity
QVQLVESGGGLVQAGGSLRLSCAASGFIYEDYAMGWYRQAPGKERELVAAITWRGGRTYYADCVKGRYTISRDNAKNTVYLQMNSLKPEDTAVYYCRPLVYSYASRYGYWGQGTQVTVLS | high polyreactivity
QVQLVESGGGLVQAGGSLRLSCAASGFIYFDYAMGWDRQAPGKERELVAGISRSGDSTYYADSVKGRFTISRDNAKNTVYLQMNSLKPEDTGVFYCAVVTYRSKAHSSRNGKYYYWGQGTHVTVSS | low polyreactivity
QVQLVESGGGLVQAGGSLRLSCAASGFIYGWYAMGWYRQAPGKERELVAAINWSGTSTYYADSVKGRFTISRDNAKNTVYLQMNSLKPEDTAVYYCAAYFQKLPTTGYDYWGQGTQVTVSS | low polyreactivity
